Each block holds one molecule with its values, some of them ahead of it.
Assays:
three-helix bundles = experiment: SEC binding experiments with three-helix bundles; details: FIG. 16A
Experimental: (§1) Individual hinge and sfGFP-fused peptides or 3hb were diluted in 20 mM Tris pH 8, 100 mM NaCl and mixed at approximately 1:1 concentrations. 0.5-1 mL of the resulting samples were injected onto a Superdex™ 200 Increase 10/300 GL columns and the absorbance at 230 nm was used as a readout for binding. For sfGFP-fused peptides, 473 nm was also used as readout. Mixtures were at a total concentration of 2. μM or higher.

TAMRA-cs074B = experiment: Fluorescence polarization (FP) titration and kinetics, hinge vs TAMRA-cs074B; format: binding; details: Effector TAMRA-cs074B; method FP
Sequence of TAMRA-cs074B (as listed by the source): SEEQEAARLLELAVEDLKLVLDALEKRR
Experimental: (§2) All FP measurements were performed at 25° C. in 96-well plates (Corning 3686) using a Synergy Neo2™ plate reader and a 530/590 nm filter cube. The buffer for all FP measurements was 20 mM Tris-HCl, 100 mM NaCl, 0.05% v/v TWEEN20 at pH 8. Titrations were carried out in 96-well format, with 4 replicates per plate and 24 data points per titration (23 steps of two-fold serial dilution of hinges in the presence of TAMRA-labeled peptide at a constant concentration between 0.1 nM and 1 nM) with a final sample volume of 80 μl per well. Titration plates were incubated overnight at room temperature before measuring to ensure complete equilibration. The polarization signal S (as calculated by the Neo2™ software) was fitted to the equation
(§3) where fAB is the fraction of peptide that is bound, Atot is the absolute hinge concentration, Btot is the absolute peptide concentration, S0 is the baseline polarization of free peptide, and S1 is the change in polarization upon complex formation.
(§4) Fitting was performed using the scipy.optimize.curve_fit python function (53). Uncertainties for KD values are standard deviation errors calculated from the covariance matrix of the fits. In cases where the fitted KD was lower than the concentration of the labeled peptide Btot, we report the KD as KD<Btot.
For FP kinetics experiments a 2× peptide solution and 8 different 2× hinge solutions at different concentrations were prepared separately. 40 μl of each hinge solution were mixed with 40 μl peptide solution using a multichannel pipet and the measurement was started immediately after mixing. Polarization signals S at each concentration were fitted individually to the equation
where S0 is the amplitude, S1 is the polarization at equilibrium, kapp is the apparent rate constant, t is the time after start of the measurement, and t0 is the dead time between mixing and start of the measurement. For each hinge-peptide pair, the apparent rate constants for 8 different concentrations are fitted to the equation
where koff and kon are observed off- and on rates and Atot is the absolute hinge concentration.

cs221B = experiment: FRET titration and kinetics, labeled extended hinge vs peptide cs221B; format: binding; details: FRET titration, 2 nM labeled hinge, peptide cs221B
Sequence of cs221B (as listed by the source): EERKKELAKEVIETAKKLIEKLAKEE
Experimental: (§5) AlexaFluor™ 555 C2 maleimide (donor) and AlexaFluor™ 647 C2 maleimide (acceptor) were purchased from ThermoFisherScientific. Stock solutions at −5 mM were prepared by dissolving 1 mg of each dye in 200 μl DMSO. Hinge variants containing two cysteines were expressed and purified as described above with the modification that 0.5 mM TCEP was used during lysis, IMAC and SEC, and that the buffer for initial SEC contained 20 mM sodium phosphate (PH 7.0) instead of Tris-HCl. After SEC, 500 μl hinge at a concentration of 50 μM was incubated with 500 μM of a single dye for controls or 250 μM each of two dyes. […]
(§6) The buffer for all FRET measurements was 20 mM Tris-HCl, 100 mM NaCl, 0.05% v/v TWEEN®20 at pH 8. Fluorescence spectra were recorded at room temperature using a FluoroMax™ spectrometer in a 1 cm×1 cm cuvette at a sample volume of 3 ml. FRET titrations and kinetics measurements were performed at 25° C. in 96-well plates (Corning 3686) using a Synergy Neo2™ plate reader. […]
(§7) Titrations were carried out in 96-well format, with 4 replicates per plate and 24 data points per titration (23 steps of two-fold serial dilution of effector (peptide or 3hb) in the presence of double-labeled hinge at a constant concentration of 2 nM) with a final sample volume of 80 μl per well. […] The raw fluorescence signal (donor emission upon acceptor excitation) was fitted to the equation […]

3hb05 = experiment: FRET titration, labeled extended hinge vs 3hb05; format: binding
Sequence of 3hb05 (as listed by the source): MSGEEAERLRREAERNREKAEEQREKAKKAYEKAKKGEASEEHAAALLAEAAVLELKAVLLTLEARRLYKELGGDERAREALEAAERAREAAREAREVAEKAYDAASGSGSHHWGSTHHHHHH
Experimental: as §5, §6, §7

cs074B = experiment: FRET titration and kinetics, labeled extended hinge vs peptide cs074B; format: binding; details: Effector cs074B; method FRET
Experimental: as §5, §6, §7

cs201B = experiment: FRET titration and kinetics, labeled extended hinge vs peptide cs201B; format: binding; details: FRET titration, 2 nM labeled hinge, peptide cs201B
Sequence of cs201B (as listed by the source): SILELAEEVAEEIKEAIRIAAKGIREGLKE
Experimental: AlexaFluor™ 555 C2 maleimide (donor) and AlexaFluor™ 647 C2 maleimide (acceptor) were purchased from ThermoFisherScientific. Stock solutions at −5 mM were prepared by dissolving 1 mg of each dye in 200 μl DMSO. Hinge variants containing two cysteines were expressed and purified as described above with the modification that 0.5 mM TCEP was used during lysis, IMAC and SEC, and that the buffer for initial SEC contained 20 mM sodium phosphate (PH 7.0) instead of Tris-HCl. After SEC, 500 μl hinge at a concentration of 50 μM was incubated with 500 μM of a single dye for controls or 250 μM each of two dyes. After 2 h incubation at room temperature, samples were purified by SEC using a buffer containing 20 mM Tris-HCl and 100 mM NaCl at pH 8.
The buffer for all FRET measurements was 20 mM Tris-HCl, 100 mM NaCl, 0.05% v/v TWEEN®20 at pH 8. Fluorescence spectra were recorded at room temperature using a FluoroMax™ spectrometer in a 1 cm×1 cm cuvette at a sample volume of 3 ml. FRET titrations and kinetics measurements were performed at 25° C. in 96-well plates (Corning 3686) using a Synergy Neo2™ plate reader. Excitation wavelength was 520 nm and emission wavelength was 665 nm (except for donor-donor controls for which emission wavelength was 555 nm, see FIG. 13B right column).
Titrations were carried out in 96-well format, with 4 replicates per plate and 24 data points per titration (23 steps of two-fold serial dilution of effector (peptide or 3hb) in the presence of double-labeled hinge at a constant concentration of 2 nM) with a final sample volume of 80 μl per well. […] The raw fluorescence signal (donor emission upon acceptor excitation) was fitted to the equation
Fitting was performed using the scipy.optimize.curve_fit python function (53). Uncertainties for KD values are standard deviation errors calculated from the covariance matrix of the fits. […]
For FRET kinetics experiments a 2× hinge solution and 8 different 2× effector solutions at different concentrations were prepared separately. […] Fluorescence signals S at each concentration were fitted individually to the equation […]

TAMRA-cs269B = experiment: FP titration and kinetics, hinge vs TAMRA-cs269B; format: binding; details: Effector TAMRA-cs269B; method FP
Sequence of TAMRA-cs269B (as listed by the source): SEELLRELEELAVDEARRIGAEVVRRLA
Experimental: as §2, §3
as §4, with “KD<Btot. […]” for “KD<Btot.”

[1] = tested on: original peptides fused to superfolder green fluorescent protein (sfGFP); experiment: SEC binding experiments with original peptides fused to sfGFP; details: FIG. 17C
Experimental: as §1

TAMRA-cs094B = experiment: FP titration and kinetics, hinge vs TAMRA-cs094B; format: binding; details: Effector TAMRA-cs094B; method FP
Sequence of TAMRA-cs094B (as listed by the source): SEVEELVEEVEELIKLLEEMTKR
Experimental: as §2, §3
as §4, with “KD<Btot. […]” for “KD<Btot.”

B2: cs074F: extended hinge cs074 for FRET labeling, SEQ ID NO:29 (protein)
chain: DEEVQEAVERAEELREEAEELIKKARKTGDPELLRKALEALECAVRAVEEAIKRNPDNDEAVETAVRLARELKKVAEELQERAKKTGDPELLKLALRALKVAVRAVKLAIKSNPDNEEAVKTAVRLARELLKVAEELKERAEKTGDPRLLLLAAEAIAWAIEAVFLAAKASENTEGALEAARAAVKLAEVAKRIAKLLQRDAKKEGDPELLKLALRALELAVRAVELAIKENPDNDEAVETAVRLARELKKVAEELQERAKKTGDPELLKLALRALEVAVRAVELAIKSNPDNEEAVETAKRLAEELRKVAELLEERACETGDPELQELAKRAKEVADRARELAKKSNPNNGSHHHHHH
off-target binding compared to the on-target interaction for cs074B (cs221B): two orders of magnitude weaker | affinity compared with the original peptide cs074B (3hb05): similar | kon (cs074B): 170000 M⁻¹ s⁻¹ | off-target binding compared to the on-target interaction for cs074B (cs201B): three orders of magnitude weaker | kon (TAMRA-cs074B): 100000 M⁻¹ s⁻¹

B4: cs094: designed hinge protein, SEQ ID NO:5 (protein)
chain: MSGDEEERLRQEVEKAEKELEKLAKQSTDEEVRKMVREVAKQLRRLAEEAIRQKDDEALRQATEVVKMVQEAVKVAQKTTDQKVILLLLAVALVAIKVAQLAIRSDDTEALRLARIVIRAVQLLVKLVQKTTDPEVRRTALRVAELLAKLAKEAIERNDEEALREASEVVKEVQELVKEAEKSTDEEEIRELLQRAEERIREAQERIREGSGSHHWGSTHHHHHH
kon (TAMRA-cs094B): 9400 M⁻¹ s⁻¹

The next lines start with results.

SEC binding to three-helix bundles (three-helix bundles): clear binding
B1: cs074: de novo designed two-state hinge protein, SEQ ID NO:4 (protein)
chain: MSGDEEVQEAVERAEELREEAEELIKKARKTGDPELLRKALEALKEAVRAVKEAIKRNPDNEEAVKTAVRLARELLKVAEELKERAEKTGDPRLLLLAAEAIAWAIEAVFLAAKASENTEGALEAARAAVKLAEVAKRIAKLLQRDAKKEGDPELLKLALRALELAVRAVELAIKENPDNEEAVETAKRLAEELRKVAELLEERAKETGDPELQELAKRAKEVADRARELAKKSNPNNGSGSHHWGSTHHHHHH
kon (TAMRA-cs074B): 64000 M⁻¹ s⁻¹

SEC binding experiment with sfGFP-fused original peptide [1]: higher-order peaks
B3: cs269: designed hinge protein, SEQ ID NO:14 (protein)
chain: MSGDEERVRELAERASREAERAVRSGSEESLEEALRNVEELIRKSDSEEARVRVAEAAVRAAAEAAARSGTVEAAAVAVIFTARVLQIVSSSEEAVVRVLAAAAAAAARVAVELGTEEALETALRFVELLVRLADSDEARQRVLRSASESARRSAEESGSERAREVAERFRERIERNQGSGSHHWGSTHHHHHH
kon (TAMRA-cs269B): 2500 M⁻¹ s⁻¹
